The values that follow come from article PMC10456876.

Changes are numbered by the printed parent chain. Numbers in names are those of the source.

Experiment [1] deals with human telomeric nucleosome core particle (teloNCP), P68431;P62805;P04908;P06899. Nature of the experiment: EMSA. The settings on record: chain shown with the change, triplicate; for response: read off a plot; for EC50: titration 0, 23, 36, 55, 85, 130, 200 nM TRF1core against teloNCP. (In EMSA bound probe runs differently from free probe, usually more slowly.)
Experiment [2] deals with T1, TRF1 (human), P54274.
T1 chain: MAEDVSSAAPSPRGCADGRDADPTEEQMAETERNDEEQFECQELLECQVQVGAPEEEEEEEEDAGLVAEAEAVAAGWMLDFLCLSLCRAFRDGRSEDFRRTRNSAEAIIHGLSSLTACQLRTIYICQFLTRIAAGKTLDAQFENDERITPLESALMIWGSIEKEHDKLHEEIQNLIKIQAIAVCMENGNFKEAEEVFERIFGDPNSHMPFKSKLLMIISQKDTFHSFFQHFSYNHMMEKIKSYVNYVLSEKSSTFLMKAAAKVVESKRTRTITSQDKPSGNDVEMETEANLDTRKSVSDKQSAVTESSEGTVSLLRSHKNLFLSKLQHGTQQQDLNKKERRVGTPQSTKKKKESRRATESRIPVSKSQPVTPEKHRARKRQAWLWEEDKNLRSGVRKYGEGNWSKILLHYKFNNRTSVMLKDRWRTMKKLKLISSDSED
Briefly: native MS; purified TRF1core (co-expressed in Sf9, co-purified through MBP on TIN2) at 20 uM, dialysed into 750 mM ammonium acetate pH 8.0, 1 mM DTT. Particulars: remark: other sources report otherwise.

[3] abbreviates: point at 55 nM TRF1core, parent: est. 79.

Usually EC50 stands for the concentration giving half of the maximal effect. High values mean weaker potency, low ones greater potency. One may read the stoichiometry N as the number of molecules, sites or subunits per partner or assembly.

B1: wild-type MBP-tagged TRF1core (TRF1-TIN2-TPP1), P54274;Q9BSI4 S434D; S435D; S437D (protein)
chain 1: T1 chain with S434D, S435D, S437D
chain 2: MATPLVAGPAALRFAAAASWQVVRGRCVEHFPRVLEFLRSLRAVAPGLVRYRHHERLCMGLKAKVVVELILQGRPWAQVLKALNHHFPESGPIVRDPKATKQDLRKILEAQETFYQQVKQLSEAPVDLASKLQELEQEYGEPFLAAMEKLLFEYLCQLEKALPTPQAQQLQDVLSWMQPGVSITSSLAWRQYGVDMGWLLPECSVTDSVNLAEPMEQNPPQQQRLALHNPLPKAKPGTHLPQGPSSRTHPEPLAGRHFNLAPLGRRRVQSQWASTRGGHKERPTVMLFPFRNLGSPTQVISKPESKEEHAIYTADLAMGTRAASTGKSKSPCQTLGGRALKENPVDLPATEQKENCLDCYMDPLRLSLLPPRARKPVCPPSLCSSVITIGDLVLDSDEEENGQGEGKESLENYQKTKFDTLIPTLCEYLPPSGHGAIPVSSCDCRDSSRPL
chain 3: MAGSGRLVLRPWIRELILGSETPSSPRAGQLLEVLQDAEAAVAGPSHAPDTSDVGATLLVSDGTHSVRCLVTREALDTSDWEEKEFGFRGTEGRLLLLQDCGVHVQVAEGGAPAEFYLQVDRFSLLPTEQPRLRVPGCNQDLDVQKKLYDCLEEHLSESTSSNAGLSLSQLLDEMREDQEHQGALVCLAESCLTLEGPCTAPPVTHWAASRCKATGEAVYTVPSSMLCISENDQLILSSLGPCQRTQGPELPPPDPALQDLSLTLIASPPSSPSSSGTPALPGHMSSEESGTSISLLPALSLAAPDPGQRSSSQPSPAICSAPATLTPRSPHASRTPSSPLQSCTPSLSPRSHVPSPHQALVTRPQKPSLEFKEFVGLPCKNRPPFPRTGATRGAQEPCSVWEPPKRHRDGSAFQYEYEPPCTSLCARVQAVRLPPQLMAWALHFLMDAQPGSEPTPM
On to B1, for which the response in experiment [1] (setting [3]) is 91 % Bound. In addition, the EC50 in experiment [1] stood at 30.3 nM.

B2: wild-type MBP-tagged TRF1core (TRF1-TIN2-TPP1), P54274;Q9BSI4 L384A; W385A; K389A (protein)
chain 1: AEDVSSAAPSPRGCADGRDADPTEEQMAETERNDEEQFECQELLECQVQVGAPEEEEEEEEDAGLVAEAEAVAAGWMLDFLCLSLCRAFRDGRSEDFRRTRNSAEAIIHGLSSLTACQLRTIYICQFLTRIAAGKTLDAQFENDERITPLESALMIWGSIEKEHDKLHEEIQNLIKIQAIAVCMENGNFKEAEEVFERIFGDPNSHMPFKSKLLMIISQKDTFHSFFQHFSYNHMMEKIKSYVNYVLSEKSSTFLMKAAAKVVESKRTRTITSQDKPSGNDVEMETEANLDTRKSVSDKQSAVTESSEGTVSLLRSHKNLFLSKLQHGTQQQDLNKKERRVGTPQSTKKKKESRRATESRIPVSKSQPVTPEKHRARKRQAWAAEEDANLRSGVRKYGEGNWSKILLHYKFNNRTSVMLKDRWRTMKKLKLISSDSED
chain 2: B1 chain 2
chain 3: B1 chain 3
Turning to B2, the response in experiment [1] (setting [3]) was 68 % Bound; in experiment [1] (point at 200 nM TRF1core, parent: est. 100), 97 % Bound. In addition, the EC50 in experiment [1] stood at 42.4 nM.

B3: TRF1, P54274 1-439 (natural protein)
chain: T1 chain
modifications: here or on the partner: phosphoserine at 434, 435 and 437 (likely by endogenous insect cell kinases; S435 phosphorylated in 87.3% of the identified peptides); phosphoserine at 434, 435 and 437 (likely by endogenous insect cell kinases; S435 phosphorylated in 87.3% of the identified peptides)
Take B3: the stoichiometry N in experiment [2] came out at 2.
